Test results as given in US20190330316A1 (PROTHENA BIOSCIENCES, published 2019).
Ends that are not written are not given here.

Columns and labels:
[1] = target: T1, biotinylated peptide spanning amino acid residues 64-78 of SEQ ID NO:3 (human, also: biotinylated, position not given here); assay: ELISA, biotinylated peptides on streptavidin plate
T1 peptide: VTQARMVSKSKDGTG
Procedure: (§1) A range of overlapping biotinylated peptides spanning the entire 383aa 4RON human tau protein were used for mapping the murine 16G7 antibody. Additional peptides were used to model potential post-translational modifications of the C- and N-terminal ends of the protein.
(§2) Biotinylated peptides were bound to separate wells of a streptavidin-coated ELISA plate. The plate was blocked and treated with murine 16G7, followed by incubation with a horseradish peroxidase-conjugated anti-mouse antibody. After thorough washing, OPD was applied to the plate and allowed to develop. The plate was read at 450 nm absorbance. Background subtraction was performed with absorbance values from wells containing no primary antibody, and a threshold for positive binding was set to 0.2 absorbance units.

[2] = target: T2, biotinylated peptide spanning amino acid residues 55-69 of SEQ ID NO:3 (human, also: biotinylated, position not given here); assay: ELISA, biotinylated peptides on streptavidin plate
T2 peptide: SLEDEAAGHVTQARM
Procedure: as §1, §2

[3] = target: T3, 4R0N human tau (383 amino acids) (human, UniProt P10636 1-758, radio-iodinated (125I) in the precipitation screen); assay: precipitation of 125I-labeled tau by hybridoma supernatants
T3 construct: Purified from SF9 cells infected with a tau baculovirus construct; also called 4RON human tau; 4R0N tau
T3 sequence (P10636 other isoform, or with tags, fused parts or gaps limits assumed): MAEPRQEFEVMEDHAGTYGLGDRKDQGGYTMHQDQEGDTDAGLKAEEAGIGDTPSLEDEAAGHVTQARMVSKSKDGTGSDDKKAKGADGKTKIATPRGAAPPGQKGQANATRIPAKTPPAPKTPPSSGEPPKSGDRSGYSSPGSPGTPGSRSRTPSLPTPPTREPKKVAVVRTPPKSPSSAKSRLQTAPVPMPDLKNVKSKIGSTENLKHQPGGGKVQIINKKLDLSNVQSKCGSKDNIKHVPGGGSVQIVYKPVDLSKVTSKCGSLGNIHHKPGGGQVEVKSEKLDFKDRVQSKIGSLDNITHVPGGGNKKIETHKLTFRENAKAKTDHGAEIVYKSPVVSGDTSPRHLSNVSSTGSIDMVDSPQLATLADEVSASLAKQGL
Procedure: Monoclonal antibody 16G7 was prepared according to a modification of the method of Kohler and Milstein (G. Kohler and C. Milstein (1975) Nature 256:495-497). Human tau containing all 4 microtubule binding repeats, and lacking the N-terminal splice variants (4R0N tau, 383 amino acids) was used in all injections and screening assays. Tau was purified from SF9 cells infected with a tau-containing baculovirus construct (J. Knops et al. (1991) J Cell Biol 115(5):725-33). Six week old ALI mice were injected with 100 μg of purified tau at two week intervals. Tau was emulsified in complete Freund's adjuvant for the first immunization and in incomplete Freund's adjuvant for all subsequent immunizations. Serum samples were taken three days after the third injection to assess the titer of these animals. The highest titer mouse was injected intravenously with 100 μg of tau in 500 μL of PBS two weeks after receiving its third injection. The myeloma fusion occurred three days later using SP2/0 as the fusion partner. Supernatants from wells containing hybridoma cells were screened for their ability to precipitate ¹²⁵I-labeled tau. Tau was radio-iodinated using immobilized glucose oxidase and lactoperoxidase according to the manufacturer's instructions (Bio-Rad). […] The isotypes of 16G7 was determined to be gamma 1 kappa.

Measured: binding result

B1: murine 16G7 monoclonal antibody (antibody, V domains shown)
VH: QVQLQQPGSVLVRPGASVKLSCKASGYTFTSSWIHWAKQRPGQGLEWIGEIYPNSGNTNYNEKFKGKATLTVDISSSTAYVDLTSLTSEDSAVYYCARLGWLIPLDYWGQGTTLIVSS
VL: DIVLSQSPSSLAVSVGEKVTMSCKSSQSLLDGNDQKNYLAWYQQKPGQSPKLLMYWASTRESGVPDRFTGSGSGTDFTLTISSLKAEDLAVYYCQQFYDYPWTFGGGTKLEIKR
notes: also called mouse 16G7; m16G7
binds: all assays above
